Data taken from paper PMC9314101.

Target: PtrMYB074 (Populus trichocarpa, UniProt B9IEX5 1-371)
Test: EMSA

B1: PtrbHLH186 promoter W-box probe (dsDNA)
DNA 1: CTATAGTTTGACTGTA
DNA 2: TACAGTCAAACTATAG
- binding result: no binding
